Here are results for two molecules from patent publication US9809653B2, “Anti-LAMP1 antibodies and antibody drug conjugates, and uses thereof” (SANOFI, priority 2012, dated 2017).

Assay [1] addresses T1, Hybrid LAMP1 / glycan-deleted LAMP1 transmembrane proteins (Homo sapiens, UniProt P11279, A49S/D55E/N45S/N53T/S51L/V52T).
T1 construct: expressed in transfected cells; host or cells: 293-F (HEK293-derived), transient transfection
T1 sequence (P11279 with tags, fused parts or gaps N45S/A49S/S51L/V52T/N53T/D55E): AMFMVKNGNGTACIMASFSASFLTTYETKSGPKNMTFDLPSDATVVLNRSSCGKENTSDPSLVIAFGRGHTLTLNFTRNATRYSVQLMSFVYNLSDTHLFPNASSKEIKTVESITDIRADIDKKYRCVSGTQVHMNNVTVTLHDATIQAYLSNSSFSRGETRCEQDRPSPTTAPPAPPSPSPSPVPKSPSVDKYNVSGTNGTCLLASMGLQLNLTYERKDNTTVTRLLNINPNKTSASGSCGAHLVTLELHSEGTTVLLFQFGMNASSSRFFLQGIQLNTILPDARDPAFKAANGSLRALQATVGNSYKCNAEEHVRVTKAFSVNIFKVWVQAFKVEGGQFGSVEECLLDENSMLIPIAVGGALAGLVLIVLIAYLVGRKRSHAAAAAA
Nature of the assay: Binding onto membrane-anchored hybrid or mutated LAMP1 proteins (293-F cells) by flow cytometry. Details: species or system human/mouse. The note with it: pXL6013 LAMP1_mseq2_ΔGYQTI; Table 18. On the procedure:
(§1) Different LAMP1 proteins were expressed at the cell membrane of HEK293 cells after transient expression from mammalian plasmids encoding the entire coding sequence of LAMP1 deleted of the intracellular lysosome-targeting motif GYQTI and substituted by a 5-Ala repeat sequence.
(§2) Two days post transfection cells were processed, analyzed by flow cytometry (Guava® easyCyte™ 8HT) as mentioned in example 4.7, and the mean fluorescence was recorded. This fluorescence represents a semi-quantitative assessment of binding.
(In general: In flow cytometry, cells or beads pass a laser one at a time.)

In assay [2] the target is T2, Hybrid LAMP1 / glycan-deleted LAMP1 transmembrane proteins (Homo sapiens, UniProt P11279, D70S/L75K/R77G/S69A/T72E/V74L).
T2 construct: expressed in transfected cells; host or cells: 293-F (HEK293-derived), transient transfection
T2 sequence (P11279 with tags, fused parts or gaps S69A/D70S/T72E/V74L/L75K/R77G): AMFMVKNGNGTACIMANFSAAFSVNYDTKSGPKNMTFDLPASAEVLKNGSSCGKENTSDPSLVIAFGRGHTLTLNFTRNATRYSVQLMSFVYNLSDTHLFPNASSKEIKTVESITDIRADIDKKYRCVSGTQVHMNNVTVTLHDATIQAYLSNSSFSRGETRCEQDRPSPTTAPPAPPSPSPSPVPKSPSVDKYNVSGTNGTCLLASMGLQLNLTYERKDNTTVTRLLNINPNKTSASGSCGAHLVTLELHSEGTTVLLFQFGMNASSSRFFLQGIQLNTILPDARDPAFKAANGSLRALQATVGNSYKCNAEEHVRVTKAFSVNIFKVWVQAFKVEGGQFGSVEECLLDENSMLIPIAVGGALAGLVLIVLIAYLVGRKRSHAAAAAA
Described as above. The note with it: pXL6015 LAMP1_mseq4_ΔGYQTI; Table 18. Details: species or system human/mouse. As for the experimental part: as §1, §2

The target in assay [3] is T3, Hybrid LAMP1 / glycan-deleted LAMP1 transmembrane proteins (Homo sapiens, UniProt P11279, A93T/T85V/V91T).
T3 construct: expressed in transfected cells; host or cells: 293-F (HEK293-derived), transient transfection
T3 sequence (P11279 with tags, fused parts or gaps T85V/V91T/A93T): T2 sequence (P11279 with tags, fused parts or gaps S69A/D70S/T72E/V74L/L75K/R77G) with A41S, S42D, E44T, L46V, K47L, G49R, T57V, V63T, A65T
The description is as above. Details: species or system human/mouse. To be noted: pXL6017 LAMP1_mseq5_ΔGYQTI; Table 18. As for the experimental part: as §1, §2

In assay [4] the target is T4, Hybrid LAMP1 / glycan-deleted LAMP1 transmembrane proteins (Mus musculus, UniProt P11438, E181G/G176S/K180R/N177S/S175N).
T4 construct: expressed in transfected cells; host or cells: 293-F (HEK293-derived), transient transfection
T4 sequence (P11438 with tags, fused parts or gaps S175N/G176S/N177S/K180R/E181G): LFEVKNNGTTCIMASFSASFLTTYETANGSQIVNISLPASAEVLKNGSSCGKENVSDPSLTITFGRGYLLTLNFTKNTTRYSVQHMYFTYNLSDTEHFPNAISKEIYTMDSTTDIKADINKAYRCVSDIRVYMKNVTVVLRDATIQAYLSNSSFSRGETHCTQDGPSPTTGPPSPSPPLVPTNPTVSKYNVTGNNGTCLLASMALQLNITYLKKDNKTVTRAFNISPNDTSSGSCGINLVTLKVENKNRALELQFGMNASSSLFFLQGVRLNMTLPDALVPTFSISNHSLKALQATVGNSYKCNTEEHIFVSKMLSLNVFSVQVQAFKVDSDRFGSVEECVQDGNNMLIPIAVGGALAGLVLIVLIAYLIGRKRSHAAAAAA
The description is as above. To be noted: pXL6048 mLAMP1_hseq11_ΔGYQTI. Details: species or system human/mouse. As for the experimental part: as §1, §2

The test system of assay [5] is Hybrid LAMP1 / glycan-deleted LAMP1 transmembrane proteins. The description is as above. To be noted: pXL6012 LAMP1_mseq1_ΔGYQTI; Table 18. Details: species or system human/mouse. On the procedure:
as §1, §2

Another assay concerns the target T5, recombinant human LAMP2 (Homo sapiens, UniProt P13473).
T5 construct: purchased R&D Systems 6228-LM
Nature of the assay: Specificity ELISA on recombinant human LAMP2. It counts as binding. On the procedure:
LAMP2 is the closest member of the LAMP family with 35% sequence identity to LAMP1. […] Anti-LAMP1 antibodies were added to the plates and detected by using rabbit anti-mouse IgG conjugated with horseradish peroxidase (Sigma; #A9044). Antibody binding was visualized by adding TMB-H2O2 buffer and read at a wavelength of 450 nm.
LAMP2 is the closest member of the LAMP family with 35% sequence identity to LAMP1. Specificity of MAb4 was evaluated by ELISA as described in example 4.6 with either LAMP1 or LAMP2 soluble proteins, as shown in FIG. 41.

Where a chain is given by its changes, count along the chain named.

Chain of Hybrid LAMP1 / glycan-deleted LAMP1 transmembrane proteins (as listed by the source, stated change not applied): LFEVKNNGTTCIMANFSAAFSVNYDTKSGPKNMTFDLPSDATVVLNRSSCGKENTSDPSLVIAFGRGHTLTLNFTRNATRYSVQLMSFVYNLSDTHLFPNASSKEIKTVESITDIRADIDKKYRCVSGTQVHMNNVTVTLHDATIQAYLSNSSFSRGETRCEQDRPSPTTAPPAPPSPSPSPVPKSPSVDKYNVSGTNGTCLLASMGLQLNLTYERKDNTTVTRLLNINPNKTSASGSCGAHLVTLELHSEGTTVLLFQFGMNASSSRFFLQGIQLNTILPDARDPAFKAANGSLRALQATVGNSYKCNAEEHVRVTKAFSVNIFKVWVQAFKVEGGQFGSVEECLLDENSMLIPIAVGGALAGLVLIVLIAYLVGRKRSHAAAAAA
T5 sequence (P13473 with tags, fused parts or gaps): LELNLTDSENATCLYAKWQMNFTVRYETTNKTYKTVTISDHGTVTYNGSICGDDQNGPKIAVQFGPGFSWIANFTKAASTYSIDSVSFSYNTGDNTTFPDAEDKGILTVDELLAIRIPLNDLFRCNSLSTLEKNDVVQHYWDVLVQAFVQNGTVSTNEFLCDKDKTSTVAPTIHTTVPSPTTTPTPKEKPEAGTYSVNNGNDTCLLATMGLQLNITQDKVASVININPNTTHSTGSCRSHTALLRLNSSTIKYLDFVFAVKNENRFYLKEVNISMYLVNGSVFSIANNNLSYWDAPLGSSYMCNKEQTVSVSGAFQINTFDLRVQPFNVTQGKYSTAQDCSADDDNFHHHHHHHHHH

B1: MAb2: murine monoclonal anti-LAMP1 antibody, VH SEQ ID NO: 8, VL SEQ ID NO: 12 (antibody, V domains shown)
VH: QVQLQQSAAELARPGASVKMSCKASGYTFTSYTMHWVKQRPGQGLEWIGYFNPSSGYPEYNQKFKDKTTLTADKSSNTAFIQLNSLTSEDSAVYYCSRGYYYGSRGYALDFWGQGASVTVSS
VL: NIVLTQSPVSLAVSLGQRATISCRASESVDINGNTFMHWYQQKPGQSPKLVIYAASNIESGVPARFSGSGSSTDFTFTIDPVEADDVATYYCQQNIEDPWTFGGGTKVEIK
modifications: antibod fragment; antibody fragment
Regarding B1, the Binding call in assay [1] is on record as “Binding”; in assay [2], “No binding”; in assay [3], “Binding”; in assay [4] (Table 17 Experiment no1), “No binding”; in assay [5], “Low binding”. Further, the Mean fluorescence in assay [1] is on record as 694; in assay [2] it was 27; in assay [3], 629; in assay [4] (Table 17 Experiment no1), 28; in assay [5], 105. Besides, the “binding to LAMP2” value in the assay with recombinant human LAMP2 was “No binding”.

B2: MAb1: murine monoclonal anti-LAMP1 antibody, VH SEQ ID NO: 1, VL SEQ ID NO: 5 (antibody, V domains shown)
VH: QVQLQQSGAELVKPGASVKMSCKASGYIFTNYNIHWVKKSPGQGLEWIGAIYPGNGDAPYSQKFKDKATLTADKSSSTTYMQLSRLTSEDSAVYYCVRANWDVAFAYWGQGTLVSVSA
VL: DIQMTQSPPSLSASLGGKVTITCKASQDIDRYMAWYQDKPGKGPRLLIHDTSTLQPGIPSRFSGSGSGRDYSFSISNLEPEDIATYYCLQYDNLWTFGGGTKLEIK
modifications: Antibody Fragment; antibody fragment
On to B2, for which the Binding call is given as “Binding” in assay [1]; “Binding” in assay [2]; “Binding” in assay [3]; “No binding” in assay [4] (Table 17 Experiment no1); “No binding” in assay [4] (Table 17 Experiment no2). Moreover, the Mean fluorescence in assay [1] is 990; in assay [2], 891; in assay [3], 846; in assay [4] (Table 17 Experiment no1), 6; in assay [4] (Table 17 Experiment no2), 2; in assay [5] it was 1027. The “binding to LAMP2” value in the assay with recombinant human LAMP2 is on record as “No binding”.
